In the assay the target is T1, Tetanus toxoid (UniProt P04958 2-1315).
T1 construct: also called TT
The experiment in a line: ELISA screen of hybridoma supernatants.

T1 sequence (P04958 2-457 limits assumed, chain 1 of 2): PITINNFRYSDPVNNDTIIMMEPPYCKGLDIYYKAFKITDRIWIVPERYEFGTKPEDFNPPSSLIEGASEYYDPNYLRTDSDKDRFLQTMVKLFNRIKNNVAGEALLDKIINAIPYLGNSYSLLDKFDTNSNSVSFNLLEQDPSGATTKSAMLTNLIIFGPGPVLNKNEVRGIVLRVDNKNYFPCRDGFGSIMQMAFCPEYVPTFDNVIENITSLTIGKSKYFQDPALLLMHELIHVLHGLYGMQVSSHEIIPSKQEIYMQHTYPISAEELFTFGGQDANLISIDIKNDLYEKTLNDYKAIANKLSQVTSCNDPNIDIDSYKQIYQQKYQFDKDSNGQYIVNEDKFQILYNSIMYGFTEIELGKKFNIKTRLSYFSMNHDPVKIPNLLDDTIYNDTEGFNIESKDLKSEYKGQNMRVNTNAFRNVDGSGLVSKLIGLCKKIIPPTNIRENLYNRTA
T1 sequence (P04958 458-1315 limits assumed, chain 2 of 2): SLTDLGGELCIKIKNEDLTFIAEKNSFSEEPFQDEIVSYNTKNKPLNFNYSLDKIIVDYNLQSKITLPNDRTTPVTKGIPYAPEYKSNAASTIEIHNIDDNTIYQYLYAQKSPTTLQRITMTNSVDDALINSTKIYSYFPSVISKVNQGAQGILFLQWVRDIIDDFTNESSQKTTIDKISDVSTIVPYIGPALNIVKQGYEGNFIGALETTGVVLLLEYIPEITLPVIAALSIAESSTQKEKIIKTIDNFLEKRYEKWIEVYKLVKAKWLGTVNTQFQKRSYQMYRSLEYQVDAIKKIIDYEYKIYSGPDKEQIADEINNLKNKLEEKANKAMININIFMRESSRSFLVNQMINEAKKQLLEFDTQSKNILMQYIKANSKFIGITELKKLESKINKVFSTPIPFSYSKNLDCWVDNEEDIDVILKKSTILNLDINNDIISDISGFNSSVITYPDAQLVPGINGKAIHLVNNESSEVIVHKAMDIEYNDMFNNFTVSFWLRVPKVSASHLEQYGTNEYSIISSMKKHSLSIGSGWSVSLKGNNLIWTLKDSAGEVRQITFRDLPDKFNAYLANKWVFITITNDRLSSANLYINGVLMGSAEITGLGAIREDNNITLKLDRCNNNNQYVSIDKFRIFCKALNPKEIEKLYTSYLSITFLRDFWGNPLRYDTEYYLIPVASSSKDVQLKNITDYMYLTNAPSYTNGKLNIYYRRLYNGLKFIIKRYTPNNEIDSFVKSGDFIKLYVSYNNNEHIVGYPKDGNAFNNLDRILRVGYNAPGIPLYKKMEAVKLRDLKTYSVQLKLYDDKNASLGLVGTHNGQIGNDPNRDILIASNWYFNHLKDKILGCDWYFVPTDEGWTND

B1: Mab 1F10/7C5 (antibody, V domains shown)
VH: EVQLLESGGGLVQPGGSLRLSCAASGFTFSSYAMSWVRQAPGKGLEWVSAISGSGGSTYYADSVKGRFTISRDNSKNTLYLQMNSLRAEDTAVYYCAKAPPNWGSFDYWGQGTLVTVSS
VL: DIELTQSPLSLPVTLGQPASISCRSSQSLVYSDGNTYLNWFQQRPGQSPRRLIYKVSNWDSGVPDRFSGSGSGTDFTLKISRVEAEDVGVYYCMQGTHWPRTFGQGTKVEIKR
notes: also called Mab 7C5
Consider B1, for which the binding result is given as “no binding”.

B2: Mab 1A2 (antibody, V domains shown)
VH: not shown
VL: DIELTQSPDFQSVTPKEKVTITCRASQSIGSSLHWYQQKPDQSPKLLIKYASQSFSGVPSRFSGSGSGTDFTLTINSLEAEDAATYYCHQSSSLPRTFGQGTKVEIKR
With B2, the binding result is on record as “no binding”.

For the origin of these results see patent US20050014931A1 (ABGENIX, published 2005).
